Test results: patent US20230265168A1 (BEIJING KAWIN TECHNOLOGY SHARE, published 2023)
Changes are numbered by the printed parent chain.

B1: antibody 096 (antibody, human IgG1, kappa, V domains shown)
VH: not shown
VL: ETTLTQSPSTLSASVGDRVTITCRASQSISSYLNWYQQKPGKAPQLLIYTASSLQSGVPSRFSGSGSGTDFTLTISSLQPEDFATYYCQQSYSTPLTFGQGTRLEIKR
B2: antibody 090 (antibody, human IgG1, kappa, V domains shown)
VH: EVQLVQSGAEVKKPGASMKVSCKASGYTFTDYYIHWVRQAPGQGPEWMGWINPNSGGTNYAQKFQGRVTMTRDTSISTAYMELSRLRSDDTAVYYCARDLWNDDVDYYGMDVWGKGTMVTVSS
VL: EIVLTQSPGTLSLSPGERATLSCRASQSVSSYLAWYQQKPGQAPRLLIYGASSRATGIPARFSGSGSGTEFTLTISSLQSEDFATYYCQQSYSTPLTFGPGTKVEIKR
B3: antibody 091 (antibody, human IgG1, kappa, V domains shown)
VH: B2 VH
VL: B2 VL with G9A, G50D, S53N, E70D, Q79E, S80P, P100G, E105D
B4: antibody 083 (antibody, human IgG1, kappa, V domains shown)
VH: EVQLVQSGAEVKKPGASVKVSCKASGYTFTYYYMHWVRQAPGQGLEWMGWINPNSGGTNYAQKFQGRVTITADKSTSTAYMELSSLRSEDTAVYYCARDVWQQGGYYYYMDVWGKGTLVTVSS
VL: not shown
B5: antibody 021-M34 (antibody, human IgG1, kappa, V domains shown)
VH: not shown
VL: DIQLTQSPSSLSASVGDRVTITCRASASISTYLNWYQQKPGKAPKLLIYAASSLQSGVPSRFSGSGSGTDFTLTISSLQPEDFATYYCQQSYSTPLTFGGGTKVDIKR
notes: 021 with X34 (LCDR1) Q to A
B6: antibody 093 (antibody, human IgG1, kappa, V domains shown)
VH: B2 VH
VL: B5 VL with A27Q, T31S, A50D, D70E, S76R, V104L, D105E
B7: antibody 021-M40 (antibody, human IgG1, kappa, V domains shown)
VH: not shown
VL: B5 VL with A27Q, A50S
notes: 021 with X40 (LCDR2) A to S
B8: antibody 095 (antibody, human IgG1, kappa, V domains shown)
VH: not shown
VL: B5 VL with A27Q, T31S, Y49S, E81G, F83L, D105E
B9: antibody 021-M39 (antibody, human IgG1, kappa, V domains shown)
VH: not shown
VL: B5 VL with A27Q, Y32A
notes: 021 with X39 (LCDR1) Y to A
B10: antibody 021-M41 (antibody, human IgG1, kappa, V domains shown)
VH: not shown
VL: B5 VL with A27Q, A51S
notes: 021 with X41 (LCDR2) A to S
B11: antibody 021-M42 (antibody, human IgG1, kappa, V domains shown)
VH: not shown
VL: B5 VL with A27Q, S52A
notes: 021 with X42 (LCDR2) S to A
B12: antibody 021-M35 (antibody, human IgG1, kappa, V domains shown)
VH: not shown
VL: B5 VL with A27Q, S28A
notes: 021 with X35 (LCDR1) S to A
B13: antibody 021-M36 (antibody, human IgG1, kappa, V domains shown)
VH: not shown
VL: B5 VL with A27Q, I29A
notes: 021 with X36 (LCDR1) I to A

Molecular target: T1, HBsAg protein (hepatitis B virus surface antigen) (hepatitis B virus, UniProt P03140 175-400)
T1 construct: Coated on the ELISA plate at 20 ug/ml; also called HBsAg antigen
T1 sequence (P03140 175-400, tags left off): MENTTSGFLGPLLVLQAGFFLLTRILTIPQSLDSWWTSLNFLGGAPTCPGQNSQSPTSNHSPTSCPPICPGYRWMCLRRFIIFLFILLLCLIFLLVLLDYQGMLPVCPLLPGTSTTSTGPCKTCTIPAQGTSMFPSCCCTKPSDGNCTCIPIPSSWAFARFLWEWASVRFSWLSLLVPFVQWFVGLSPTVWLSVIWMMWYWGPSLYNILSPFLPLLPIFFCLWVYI
Assay: ELISA on coated HBsAg; grade from OD450 ratio to 021 at 4 ug/ml

First: B1
Second: B2
The “ratio of OD450 at 4 ug/ml to OD450 of antibody 021 at 4 ug/ml” value (“ratio of OD450 at 4 ug/ml” below) of the first is higher: > 1.1 ratio for the first, 0.8 to 1.1 ratio for the second.

Compared with B3, B4 is higher in “ratio of OD450 at 4 ug/ml” value: 0.8 to 1.1 ratio for the first, > 1.1 ratio for the second.

First: B5
Second: B6
The “ratio of OD450 at 4 ug/ml” value of the first is lower: 0.8 to 1.1 ratio for the first, > 1.1 ratio for the second.

B7 and B8 cannot be ordered by “ratio of OD450 at 4 ug/ml” value: > 1.1 ratio for the first, > 1.1 ratio for the second.

First: B9
Second: B10
The “ratio of OD450 at 4 ug/ml” value of the first is lower: 0.4 to 0.6 ratio for the first, 0.8 to 1.1 ratio for the second.

Compared with B11, B12 is higher in “ratio of OD450 at 4 ug/ml” value: 0.6 to 0.8 ratio for the first, 0.8 to 1.1 ratio for the second.

With B13 the “ratio of OD450 at 4 ug/ml” value was 0.4 to 0.6 ratio.
